Measured values as given in patent publication US9957297B2, “Template-fixed peptidomimetics as inhibitors of FPR1” (POLYPHOR AG, priority 2011, dated 2018).
*1 amine or outer side, *2 acyl side, *3 side chain or, on linkers, in order; H or OH if unused. Where a SMILES comes first, the peptide text is derived from it. Bridges are numbered along the chain shown (N, C = ends). [ ]: non-standard residue; d: D form. Pro(trans-4-NH2) = O=C([C@@H]1C[C@@H](N[*:3])CN1[*:1])[*:2]; Trp(5-OH) = N[C@@H](Cc1c[nH]c2ccc(O)cc12)C(=O)O; Oic = O=C(O)[C@@H]1C[C@@H]2CCCC[C@@H]2N1; Pro(4S-NH2) = N[C@@H]1CN[C@H](C(=O)O)C1; d(cisHyp) = O=C(O)[C@H]1C[C@@H](O)CN1; Hyp = O=C(O)[C@@H]1C[C@@H](O)CN1; Tic = O=C(O)[C@@H]1Cc2ccccc2CN1; Pip = O=C(O)[C@@H]1CCCCN1; Dab = NCC[C@H](N)C(=O)O; Dap = NC[C@H](N)C(=O)O

T1: FPR1 (Homo sapiens, UniProt P21462)
T1 construct: host or cells: CHO (PathHunter CHO-FPR1 β-arrestin cells)
T1 sequence (P21462 1-350): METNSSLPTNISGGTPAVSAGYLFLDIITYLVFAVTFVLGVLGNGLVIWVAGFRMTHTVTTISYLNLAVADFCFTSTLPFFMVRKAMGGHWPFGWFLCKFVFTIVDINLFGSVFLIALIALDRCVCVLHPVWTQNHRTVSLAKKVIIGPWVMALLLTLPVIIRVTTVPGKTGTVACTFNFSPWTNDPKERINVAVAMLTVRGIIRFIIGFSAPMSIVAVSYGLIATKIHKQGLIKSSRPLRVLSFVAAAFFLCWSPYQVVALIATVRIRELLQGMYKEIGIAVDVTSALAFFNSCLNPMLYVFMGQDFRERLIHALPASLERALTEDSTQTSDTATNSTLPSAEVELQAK

T2: Formyl-Peptide Receptor 1 (UniProt P21462 1-350, limits assumed)
T2 sequence (looked up): T1 sequence (P21462 1-350)

B1: cyclo(-Tyr-His-Lys-Cys-His-Gly-^DPro-Trp-Thr-Ile-Cys-Tyr-Glu-Lys-^DPro-Pro((4R)NH2)-) (peptide)
peptide: cyclo(YHKCHG[dP]WTICYEK[dP][Pro(trans-4-NH2)])
modifications: disulfide 4-11
SMILES: CC[C@H](C)[C@@H]1NC(=O)[C@H]([C@@H](C)O)NC(=O)[C@H](Cc2c[nH]c3ccccc23)NC(=O)[C@H]2CCCN2C(=O)CNC(=O)[C@H](Cc2c[nH]cn2)NC(=O)[C@@H]2CSSC[C@H](NC1=O)C(=O)N[C@@H](Cc1ccc(O)cc1)C(=O)N[C@@H](CCC(=O)O)C(=O)N[C@@H](CCCCN)C(=O)N1CCC[C@@H]1C(=O)N1C[C@H](N)C[C@H]1C(=O)N[C@@H](Cc1ccc(O)cc1)C(=O)N[C@@H](Cc1c[nH]cn1)C(=O)N[C@@H](CCCCN)C(=O)N2
B2: cyclo(-Tyr-His-Lys-Cys-Trp-Gly-^DPro-Trp-Thr-Ile-Cys-Tyr-Glu-Lys-^DPro-Lys-) (peptide)
peptide: cyclo(YHKCWG[dP]WTICYEK[dP]K)
modifications: disulfide 4-11
SMILES: CC[C@H](C)[C@@H]1NC(=O)[C@H]([C@@H](C)O)NC(=O)[C@H](Cc2c[nH]c3ccccc23)NC(=O)[C@H]2CCCN2C(=O)CNC(=O)[C@H](Cc2c[nH]c3ccccc23)NC(=O)[C@@H]2CSSC[C@H](NC1=O)C(=O)N[C@@H](Cc1ccc(O)cc1)C(=O)N[C@@H](CCC(=O)O)C(=O)N[C@@H](CCCCN)C(=O)N1CCC[C@@H]1C(=O)N[C@@H](CCCCN)C(=O)N[C@@H](Cc1ccc(O)cc1)C(=O)N[C@@H](Cc1c[nH]cn1)C(=O)N[C@@H](CCCCN)C(=O)N2
B3: cyclo(-Tyr-His-Ala-Cys-His-Gly-^DPro-Trp-Thr-Ile-Cys-Tyr-Gln-Lys-^DPro-Trp-) (peptide)
peptide: cyclo(YHACHG[dP]WTICYQK[dP]W)
modifications: disulfide 4-11
SMILES: CC[C@H](C)[C@@H]1NC(=O)[C@H]([C@@H](C)O)NC(=O)[C@H](Cc2c[nH]c3ccccc23)NC(=O)[C@H]2CCCN2C(=O)CNC(=O)[C@H](Cc2c[nH]cn2)NC(=O)[C@@H]2CSSC[C@H](NC1=O)C(=O)N[C@@H](Cc1ccc(O)cc1)C(=O)N[C@@H](CCC(N)=O)C(=O)N[C@@H](CCCCN)C(=O)N1CCC[C@@H]1C(=O)N[C@@H](Cc1c[nH]c3ccccc13)C(=O)N[C@@H](Cc1ccc(O)cc1)C(=O)N[C@@H](Cc1c[nH]cn1)C(=O)N[C@@H](C)C(=O)N2
B4: cyclo(-Tyr-His-Lys-Cys-His-Gly-^DPro-Trp-Thr-Ile-Cys-Tyr-Glu-Lys-^DPro-Lys-) (peptide)
peptide: cyclo(YHKCHG[dP]WTICYEK[dP]K)
modifications: disulfide 4-11
SMILES: CC[C@H](C)[C@@H]1NC(=O)[C@H]([C@@H](C)O)NC(=O)[C@H](Cc2c[nH]c3ccccc23)NC(=O)[C@H]2CCCN2C(=O)CNC(=O)[C@H](Cc2c[nH]cn2)NC(=O)[C@@H]2CSSC[C@H](NC1=O)C(=O)N[C@@H](Cc1ccc(O)cc1)C(=O)N[C@@H](CCC(=O)O)C(=O)N[C@@H](CCCCN)C(=O)N1CCC[C@@H]1C(=O)N[C@@H](CCCCN)C(=O)N[C@@H](Cc1ccc(O)cc1)C(=O)N[C@@H](Cc1c[nH]cn1)C(=O)N[C@@H](CCCCN)C(=O)N2
B5: cyclo(-Tyr-His-Ile-Cys-His-Gly-^DPro-Trp-Thr-Ile-Cys-Tyr-Glu-Lys-^DPro-Pro-) (peptide)
peptide: cyclo(YHICHG[dP]WTICYEK[dP]P)
modifications: disulfide 4-11
SMILES: CC[C@H](C)[C@@H]1NC(=O)[C@H](Cc2c[nH]cn2)NC(=O)[C@H](Cc2ccc(O)cc2)NC(=O)[C@@H]2CCCN2C(=O)[C@H]2CCCN2C(=O)[C@H](CCCCN)NC(=O)[C@H](CCC(=O)O)NC(=O)[C@H](Cc2ccc(O)cc2)NC(=O)[C@@H]2CSSC[C@H](NC1=O)C(=O)N[C@@H](Cc1c[nH]cn1)C(=O)NCC(=O)N1CCC[C@@H]1C(=O)N[C@@H](Cc1c[nH]c3ccccc13)C(=O)N[C@@H]([C@@H](C)O)C(=O)N[C@@H]([C@@H](C)CC)C(=O)N2
B6: cyclo(-Tyr-His-Lys-Cys-His-Gly-^DPro-Trp-Thr-Ile-Cys-Tyr-Glu-Lys-^DPro-Dab-) (peptide)
peptide: cyclo(YHKCHG[dP]WTICYEK[dP][Dab])
modifications: disulfide 4-11
SMILES: CC[C@H](C)[C@@H]1NC(=O)[C@H]([C@@H](C)O)NC(=O)[C@H](Cc2c[nH]c3ccccc23)NC(=O)[C@H]2CCCN2C(=O)CNC(=O)[C@H](Cc2c[nH]cn2)NC(=O)[C@@H]2CSSC[C@H](NC1=O)C(=O)N[C@@H](Cc1ccc(O)cc1)C(=O)N[C@@H](CCC(=O)O)C(=O)N[C@@H](CCCCN)C(=O)N1CCC[C@@H]1C(=O)N[C@@H](CCN)C(=O)N[C@@H](Cc1ccc(O)cc1)C(=O)N[C@@H](Cc1c[nH]cn1)C(=O)N[C@@H](CCCCN)C(=O)N2
B7: cyclo(-Tyr-His-Ala-Cys-Trp-Gly-^DPro-Trp-Thr-Ile-Cys-Tyr-Gln-Lys-^DPro-Ala-) (peptide)
peptide: cyclo(YHACWG[dP]WTICYQK[dP]A)
modifications: disulfide 4-11
SMILES: CC[C@H](C)[C@@H]1NC(=O)[C@H]([C@@H](C)O)NC(=O)[C@H](Cc2c[nH]c3ccccc23)NC(=O)[C@H]2CCCN2C(=O)CNC(=O)[C@H](Cc2c[nH]c3ccccc23)NC(=O)[C@@H]2CSSC[C@H](NC1=O)C(=O)N[C@@H](Cc1ccc(O)cc1)C(=O)N[C@@H](CCC(N)=O)C(=O)N[C@@H](CCCCN)C(=O)N1CCC[C@@H]1C(=O)N[C@@H](C)C(=O)N[C@@H](Cc1ccc(O)cc1)C(=O)N[C@@H](Cc1c[nH]cn1)C(=O)N[C@@H](C)C(=O)N2

Each molecule was assayed against T1, FPR1 (assay: FPR1 β-arrestin recruitment assay (PathHunter CHO-FPR1, antagonistic mode)). Settings: CHO FPR1 β-arrestin cells; antagonistic assay vs reference agonist fMLF at its EC80; 60 min preincubation.
Format: cell-based
Procedure: 2.2 FPR1 β-Arrestin Recruitment Assay
The PathHunter CHO—FPR1 (DiscoverX) assay was performed according to the manufacturer's protocol. In brief, CHO FPR1 β-arrestin cells were seeded at a density of 9000 cells per well in 20 μl of Ham's F12 medium (Invitrogen) in black 384-well culture plates and incubated overnight at 37° C. in a humidified atmosphere with 5% CO2. The next day, serial dilutions of the β-hairpin peptidomimetics of this invention have been prepared in DMSO and subsequently diluted in HBSS buffer supplemented with 20 mM Hepes and 0.1% BSA.
For antagonistic assay, 5 μl of compound solution or buffer was added to the cells with a final DMSO concentration of 0.5% (v/v). The plate was incubated for 60 min at 37° C. with 5% CO2 before addition of […] of the reference agonist fMLF peptide (Sigma-Aldrich) at its EC80 concentration. After 90 min of incubation at 37° C. with 5% CO2, 15 μl of beta-Glo detection reagent (Promega) were added. Reaction was developed for 20 min at room temperature and chemiluminescence was measured with a Victor2V (Perkin Elmer) luminescence reader.

Molecule | IC50
CC[C@H](C)[C@@H]1NC(=O)[C@H]([C@@H](C)O)NC(=O)[C@H](Cc2c[nH]c3ccccc23)NC(=O)[C@@H](C)NC(=O)CNC(=O)[C@H](Cc2c[nH]cn2)NC(=O)[C@@H]2CSSC[C@H](NC1=O)C(=O)N[C@@H](Cc1ccc(O)cc1)C(=O)N[C@@H](CCC(=O)O)C(=O)N[C@@H](CCCCN)C(=O)N1CCC[C@@H]1C(=O)N[C@@H](CCC(=O)O)C(=O)N[C@@H](Cc1ccc(O)cc1)C(=O)N[C@@H](Cc1c[nH]cn1)C(=O)N[C@@H](CCCCN)C(=O)N2 [Ex. 4, cyclo(-Tyr-His-Lys-Cys-His-Gly-^DAla-Trp-Thr-Ile-Cys-Tyr-Glu-Lys-^DPro-Glu-)] (cyclo(YHKCHG[dA]WTICYEK[dP]E); disulfide 4-11) | 77 ± 22 nM
CC[C@H](C)[C@@H]1NC(=O)[C@H]([C@@H](C)O)NC(=O)[C@H](Cc2c[nH]c3ccccc23)NC(=O)[C@H]2CCCN2C(=O)CNC(=O)[C@H](Cc2c[nH]cn2)NC(=O)[C@@H]2CSSC[C@H](NC1=O)C(=O)N[C@@H](Cc1ccc(O)cc1)C(=O)N[C@@H](CCC(N)=O)C(=O)N[C@@H](CCCCN)C(=O)N1CCC[C@@H]1C(=O)N1CCC[C@H]1C(=O)N[C@@H](Cc1ccc(O)cc1)C(=O)N[C@@H](Cc1c[nH]cn1)C(=O)N[C@@H](Cc1c[nH]c3ccccc13)C(=O)N2 [Ex. 11, cyclo(-Tyr-His-Trp-Cys-His-Gly-^DPro-Trp-Thr-Ile-Cys-Tyr-Gln-Lys-^DPro-Pro-)] (cyclo(YHWCHG[dP]WTICYQK[dP]P); disulfide 4-11) | 177 ± 121 nM

What follows are molecules tested against T2, Formyl-Peptide Receptor 1 (assay: cell-based or functional assay). Settings: not given.

Molecule | β-Arrestin IC50
B1 | 82 nM
cyclo(YHKCHG[dP]WTICYEK[dP][Oic]) (disulfide 4-11) [cyclo(-Tyr-His-Lys-Cys-His-Gly-^DPro-Trp-Thr-Ile-Cys-Tyr-Glu-Lys-^DPro-Oic-)] | 267 nM
cyclo(YHKCHG[d(cisHyp)]WTICYEK[dP]P) (disulfide 4-11) [cyclo(-Tyr-His-Lys-Cys-His-Gly-^DPro((4R)OH)-Trp-Thr-Ile-Cys-Tyr-Glu-Lys-^DPro-Pro-)] | 485 nM
cyclo(YH[Dab]CHG[dP]WTICYEK[dP]P) (disulfide 4-11) [cyclo(-Tyr-His-Dab-Cys-His-Gly-^DPro-Trp-Thr-Ile-Cys-Tyr-Glu-Lys-^DPro-Pro-)] | 290 nM
cyclo(YHKC[Trp(5-OH)]G[dP]WTICYEK[dP]P) (disulfide 4-11) [cyclo(-Tyr-His-Lys-Cys-Trp(5OH)-Gly-^DPro-Trp-Thr-Ile-Cys-Tyr-Glu-Lys-^DPro-Pro-)] | 13 nM
B2 | 54 nM
B3 | 147 nM
cyclo(YHKCHG[dP]WTICYEK[dP][Tic]) (disulfide 4-11) [cyclo(-Tyr-His-Lys-Cys-His-Gly-^DPro-Trp-Thr-Ile-Cys-Tyr-Glu-Lys-^DPro-Tic-)] | 115 nM
cyclo(YH[Dap]CHG[dP]WTICYEK[dP]P) (disulfide 4-11) [cyclo(-Tyr-His-Dap-Cys-His-Gly-^DPro-Trp-Thr-Ile-Cys-Tyr-Glu-Lys-^DPro-Pro-)] | 271 nM
B4 | 109 nM
cyclo(YH[Dab]CWG[dP]WTICYEK[dP]P) (disulfide 4-11) [cyclo(-Tyr-His-Dab-Cys-Trp-Gly-^DPro-Trp-Thr-Ile-Cys-Tyr-Glu-Lys-^DPro-Pro-)] | 93 nM
cyclo(YHKCHG[dP]WTICYEK[dP][Hyp]) (disulfide 4-11) [cyclo(-Tyr-His-Lys-Cys-His-Gly-^DPro-Trp-Thr-Ile-Cys-Tyr-Glu-Lys-^DPro-Pro((4R)OH)-)] | 376 nM
B5 | 50 nM
cyclo(YHKCHG[dP]WTICYEK[dP][Pip]) (disulfide 4-11) [cyclo(-Tyr-His-Lys-Cys-His-Gly-^DPro-Trp-Thr-Ile-Cys-Tyr-Glu-Lys-^DPro-Pip-)] | 161 nM
B6 | 189 nM
B7 | 188 nM
cyclo(YHKCHG[dP]WTICYEK[dP][Pro(4S-NH2)]) (disulfide 4-11) [cyclo(-Tyr-His-Lys-Cys-His-Gly-^DPro-Trp-Thr-Ile-Cys-Tyr-Glu-Lys-^DPro-Pro((4S)NH2)-)] | 530 nM
